According to publication PMC10797690, “The SIRT3-ATAD3A axis regulates MAM dynamics and mitochondrial calcium homeostasis in cardiac hypertrophy” (International Journal of Biological Sciences, 2024):

B1: ATAD3A-Flag [not stated] / itself (parent)
chain: MSWLFGIKGPKGEGTGPPLPLPPAQPGAESGGDRGAGDRPSPKDKWSNFDPTGLERAAKAARELEHSRHAKEALNLAQMQEQTLQLEQQSKLKEYEAAVEQLKSEQIRVQAEERRKTLNEETRQHQARAQYQDKLARQRYEDQLKQQQLLNEENLRKQEESVQKQEAIRRATVEREMELRHKNEMLRVEAEARARAKADRENADIIREQIRLKAAEHRQTILESIRTAGTLFGEGFRAFVTDWDKVTATVAGLTLLAVGVYSAKNATSVAGRYIEARLGKPSLVRETSRISVLEALRHPIQVSRRLVSRPQDALEGVILSPSLEARVRDIAIATRNTKKNKSLYRNVLMYGPPGTGKTLFAKKLALHSGMDYAIMTGGDVAPMGREGVTAMHKVFDWASTSRRGLLLFVDEADAFLRKRATEKISEDLRATLNAFLHRTGQHSNKFMLVLASNQPEQFDWAINDRIDEMVCFALPQREERERLVRMYFDKYVLKPATEGKQRLKVAQFDYGKKCSEVAQLTAGMSGREIAQLAVAWQAMAYSSEDGVLTEAMMDARVQDAVQQHQQKMQWLKVERPDSEASKPPHPSLLSC

Variants of: B1
Assay: native gel electrophoresis (-DTT), anti-Flag immunoblot, oligomer band quantified
Settings: with itself, H9c2 cells, n = 3, mean ± SEM, parent: 1, read off a plot
In the case of chain 1 K134A, the response is reported as 0.42 arbitrary. With chain 1 K134E the response was 1 arbitrary. chain 1 K134Q showed a response of 0.16 arbitrary.
